A short description of the series: soluble on expression in E. coli; label from the status in PepcDB or PDB records.
As for “MEYDAFITNQLRGAQNQSSGLTTRYEQMSKIDNLLADKSSSLSGSLQSFFTSLQTLVSNAEDPAARQALIGKAEGLVNQFKTTDQYLRDQDKQVNIAIGSSVAQINNYAKQIANLNDQISRMTGVGAGASPNDLLDQRDQLVSELNKIVGVEVSVQDGGTYNLTMANGYTLVQGSTARQLAAVPSSADPTRTTVAYVDEAAGNIEIPEKLLNTGSLGGLLTFRSQDLDQTRNTLGQLALAFADAFNAQHTKGYDADGNKGKDFFSIGSPVVYSNSNNADKTVSLTAKVVDSTKVQATDYKIVFDGTDWQVTRTADNTTFTATKDADGKLEIDGLKVTVGTGAQKNDSFLLKPVSNAIVDMNVKVTNEAEIAMASESKLDPDVDTGDSDNRNGQALLDLQNSNVVGGNKTFNDAYATLVSDVGNKTSTLKTSSTTQANVVKQLYKQQQSVSGVNLDEEYGNLQR”, the “soluble on expression in E. coli” value is “soluble”.

“MAHHHHHHMMPTQSEEQTKAQIPKSQAKIVNELIENKDTICAWCFDVLKYELKNEKFDKVPPLIQSLHNDGFKIPFFVKWMKLNDVKDMGSYNYDAYELNGCIGCLGETDIMELRYYALESSLNDTRFYPITLKDFPFLIVTITYLFNFEKCAHVYDWVIGKHGIKISFVANKRRYSSTFLPEVASQHNFDHQTTVKKLIRKANYRGEINDELLENIEVERYEGVSCSLTHVDYERVKRD”: the “soluble on expression in E. coli” value was “soluble”.

With “MGKDSKKHKKERRRERSPSTSDSDEERLQKRLAEQRSLKKDEKRRQKEEMKKNESAEEKRARRMEKKMRKDAKRKDADAEDTLIPPELNYTNLNNPFNDTKLTQTFVWGKKLEREGKSGLTQDEITKQTSQRIRKNLHEAAEFKRIRDSRAAAKEDMEMMKRDADLRAGQISDTKEREFQMDQIKERTRIRIDQGRAKAIDLLSRYARFADENPHTAKIPDFELENPMEYLKASCKSVDDYEDLIEDIKTYREVDGWAKNETWWMDVTRIAEDEIQKKAAQNRGDVHASVQTEVQNMFKNKSIDELLKLEDQMDAKIRGNSGNKGYWQDLDDQLKVFIARKRLREHHGRVLRLQLAIIKEEQKKEIQQQESEELLPVAEVPPQVKIQKEEEEEEEEDEDDEKISKKVRRKIDVQTLDDPELDEPERERKWRALTGDQLDDVTRELYRIGCYRFSIFFLAEKPPTYISADDTMPGIEILDEQADVDNLTERRNRNRGTLPSSSAASSGAPQGASSKMMAIAREGMEADESIFGAEEQLAAQRHLWSDKYRPRKPTYLNRVQTGFDWNKYNQTHYDQDNPPPKIVQGYKFNIFYPDLLDMTVAPRFGLTSCEDPDFAIIRFKAGPPYEDIAFKVVNREWETLHKNGYKCQFQNGVFQLWFMFKKYRYRR”, the “soluble on expression in E. coli” value is given as “soluble”.

For “MLITHLIDSLSDRAVITPLTPTSVIIYDKNELKVYVGFTNNRNSLEYTKEVVLLLSTEIPKKAEIREIIVSKNGDYVILEGPRSLFVVRIGAEILVAKPDRLPSECFCECYPLHDSLLLQNISLSVVKVRLLPEKCDEKTFVTAVLFSDNCIRFYNLQKKFDSLLLAVDFRNHLHQVHDENVANNTFGLQKALVSFDLIPPKPNTSHFSIISIDSDCDFYTSFVHFSCFKEGYAPRIHRIEPVDGLPCDPLDLRYIQTTNPRICSVFVLVSGGGVLSHLVVFPNEFGEFRFLVKDQLRLPSSNGDPRIVQNQIRSLKVSRYEIATSSSLFSVNIFPWFEALTSISPTSTLEKETRVSELVDAVIPSDELSNTTKWTGARALRAVSVQLTQSLATEEEELLPESENIMHLVILENKDGQPAHLFNISTFDNIWSTENKTSFGRDSVSQPPMKSTGSLEQQLAALKPLAACVISEKVSCEEAIDAAMKFFDAVDERLKKHCEISKLFVERCLAVSSSAQALDEKQQSVDQRLIEETNTVEELKIRMHETKERMEGARKGINVLFHRVDENVPLSDNEIRIFERLKEHQKMLSDMTKLVPKMTLDSNEIHRMANIVLKKRGTGEEQNRFAAVEKNATEIESLEARENKLNTGISELSI”, the “soluble on expression in E. coli” value is listed as “not soluble”.

“MLEKELSFADLSISLSELYEAMGYADAVPDEAVEKEVRGVLGRVEAVTSPRFCFFISGGELDESKDSLSVGDTCFSIGKIITRQLRGSESFAFFAATAGTGFERFQHTLQQEGDMVKVYIADAIGSVIAEKTADCMEIALDEYIRDRGWRHTNRFSPGYCGWHVSEQKKLFPLFPSAEPCGIRLTDSGLMLPIKSVSGVIGLGDGVRKLEYTCGLCTYDRCYRRKQRGLEHHHHHH”: the “soluble on expression in E. coli” value is on record as “soluble”.

In the case of “MGIRPVNRKRLSMDKVFIEQLEVITTIGVYDWEQQIKQKLVLDLEMAHDNRAAGKSDDVADALDYAQVSQAVLEHIEQGRFLLVERVAEEVAELIMTRFAVPWLRIRLTKPGAVPQAKGVGVIIERARG”, the “soluble on expression in E. coli” value is recorded as “not soluble”.

Regarding “HNITRPIRSMSSTCREINKNKGNYRSYRFESVKRKDEIGQLAVTFESLLRNMDNYTKMEYTSKMSATLAHEIKNPIAGIRSGIQLLKGRAAKESDKMLCESMIKEVDRVTTLIMNLFTLSVKKESPKELISFEKVIGEIAMIYSKGAEGQGVVMETAVEEGLTGYLNENEFRQIAHNLISNSIKSVIPGIEGRIRISGRESGNKALIEFQDNGKGMSREELTRAMEPFYTKSINGIGIGLAIVKKLVEQNGGLMEMASACGEGTCVRLTFYRRVEDYEENISRG”, the “soluble on expression in E. coli” value was “not soluble”.

“MVRDMKHTVEVMIPEAEIKARIAELGRQITERYKDSGSDMVLVGLLRGSFMFMADLCREVQVSHEVDFMTASSYGSGMSTTRDLKILKDLDEDIRGKDVLIVEDIIDSGNTLSKVREILSLREPKSLAICTLLDKPSRREVNVPVEFIGFSIPDEFVVGYGIDYAQRYRHLPYIGKVILLDE”: the “soluble on expression in E. coli” value was “soluble”.

For the sequence “QEGTSPMQKETRFLPGTNVEYEDYSTFFDKFSASGGFVLFNSNRKKYTIYNRKESTSRFAPASTYKVFSALLALESGIITKNDSHMTWDGTQYPYKEWNQDQDLFSAMSSSTTWYFQKLDRQIGEDHLRHYLKSIHYGNEDFSVPADYWLDGSLQISPLEQVNILKKFYDNEFDFKQSNIETVKDSIRLEESNGRVLSGKTGTSVINGELHAGWFIGYVETADNTFFFAVHIQGEKRAAGSSAAEIALSILDKKGIYPSVSR”, the “soluble on expression in E. coli” value is “soluble”.

Turning to “MAHHHHHHMTFPSVQSSVHLYSNVVELAIRYTDLCAFCGRKAHEGENGSTKGDRAETSGSWHFHLARSKEPIAVSCLHAIMQRTNILGGRVNLFFTFERVPPFGGHKSRAVIQLASFHYSKNMRLCLNVAYLPQEEVRLKTVRAHVDSDCNVLEVACWRVFVFLGRST”, the “soluble on expression in E. coli” value is on record as “not soluble”.

Turning to “FQRSTPAITLESPDIKYPLRLIDREIISHDTRRFRFALPSPQHILGLPVGQHIYLSARIDGNLVVRPYTPISSDDDKGFVDLVIKVYFKDTHPKFPAGGKMSQYLESMQIGDTIEFRGPSGLLVYQGKGKFAIRPDKKSNPIIRTVKSVGMIAGGTGITPMLQVIRAIMKDPDDHTVCHLLFANQTEKDILLRPELEELRNKHSARFKLWYTLDRAPEAWDYGQGFVNEEMIRDHLPPPEEEPLVLMCGPPPMIQYACLPNLDHVGHPTERCFVF”, the “soluble on expression in E. coli” value is recorded as “soluble”.

Take “MVHYKLTYFNGRGAGECARQVFALADQKYEDVRLTQETFVPLKATFPFGQVPVLEVDGQQLAQSQAICRYLAKTFGFAGATPFESALIDSLADAYTDYRAEMKTYYYTALGFMTGDVDKPKTDVLLPARTKFLGFITKFLKKNSSGFLVGDKISWVDLLVAEHVADMTNRVPEYIEGFPEVKAHMERIQQTPRIKKWIETRPETPF”: the “soluble on expression in E. coli” value was “soluble”.

As for “PGAKVRVFHLLPFRREDLVPEEVLASVRDYLRTTKEQGLTMRVAMHGGNTEGDFSVSTAQALKGLFANEGIPLEFDETCANRTSETLLGAVILDDNSTHFIKHLVAQ”, the “soluble on expression in E. coli” value was “not soluble”.

Turning to “MGRLADTLDALSVRALSPDHRIQGQLHHRTKVDISFTSEDSYYEYKSEQAVAAQLSAVLNALIVGRNEGFCAAVREVTDLRLDDRPHWDARRRRFREERDGAPLEGQSAGGWLTVASVGLRDANATVKPGAFDELDASGFLIEVHSAIADLWKDQAMAMSYLRRTHFG”, the “soluble on expression in E. coli” value is on record as “not soluble”.

In the case of “MNNLYRDLAPVTEAAWAEIELEAARTFKRHIAGRRVVDVSDPGGPVTAAVSTGRLIDVKAPTNGVIAHLRASKPLVRLRVPFTLSRNEIDDVERGSKDSDWEPVKEAAKKLAFVEDRTIFEGYSAASIEGIRSASSNPALTLPEDPREIPDVISQALSELRLAGVDGPYSVLLSADVYTKVSETSDHGYPIREHLNRLVDGDIIWAPAIDGAFVLTTRGGDFDLQLGTDVAIGYASHDTDTVRLYLQETLTFLCYTAEASVALSH”, the “soluble on expression in E. coli” value is given as “not soluble”.

“MDVGKRLKEVREMYGLSQRELAKRVGLTNSTISMIERDAVSPSISSLKKILEGVSLTVTEFFTLEIPTESQVVFKKDTLVDVGSDGVELHLVGTPQPDSKLAFLIERYQPGSSTGKDMITHIGEEAGTVIEGSIEITVAGRSFKLTKGDSYKFSTSLPHKFKNTSKKVCKIISAHTPPSF”: the “soluble on expression in E. coli” value is “not soluble”.

In the case of “MSLNLVSKLEETASEKPDSIACRFKDHMMTYQELNEYIQRFADGLQEAGMEKGDHLALLLGNSPDFIIAFFGALKAGIVVVPINPLYTPTEIGYMLTNGDVKAIVGVSQLLPLYESMHESLPKVELVILCQTGEAEPEAADPEVRMKMTTFAKILRPTSAAKQNQEPVPDDTAVILYTSGTTGKPKGAMLTHQNLYSNANDVAGYLGMDERDNVVCALPMFHVFCLTVCMNAPLMSGATVLIEPQFSPASVFKLVKQQQATIFAGVPTMYNYLFQHENGKKDDFSSIRLCISGGASMPVALLTAFEEKFGVTILEGYGLSEASPVTCFNPFDRGRKPGSIGTSILHVENKVVDPLGRELPAHQVGELIVKGPNVMKGYYKMPMETEHALKDGWLYTGDLARRDEDGYFYIVDRKKDMIIVGGYNVYPREVEEVLYSHPDVKEAVVIGVPDPQSGEAVKGYVVPKRSGVTEEDIMQHCEKHLAKYKRPAAITFLDDIPKNATGKMLRRALRDILPQGHHHHHH”, the “soluble on expression in E. coli” value is reported as “soluble”.

Regarding “MELKFVVPDMAETFGKLGYAGEGEILTEGYGRNTVVIGRSYHLYSSKQRADDIEVVVAAEAGEKDFDQDQPLKAVNPHLVAKGYAIENRGFTDYVLYVDDLVKA”, the “soluble on expression in E. coli” value is reported as “not soluble”.

For the sequence “NAADGIFFPALEQNMMGAVLINENDEVMFFNPAAEKLWGYKREEVIGNNIDMLIPRDLRPAHPEYIRHNREGGKARVEGMSRELQLEKKDGSKIWTRFALSKVSAEGKVYYLALVRDAS”, the “soluble on expression in E. coli” value is reported as “soluble”.

Turning to “MSLNGITKYVEKLTFFNIQSGKQVEFNRDEKVILSNVPFIQQLPELDRGCEVTSLAMMLQYAGITVDKMKLANEIKKVDFMNDGVRGNPNEGFVGNIYTFSESGYGVYHGPLFQLAKKYLPNKAVDLTGKSIEELYKSVKAGQPVVIITNATFAPLDEDEFTTWETNNGDVSITYNEHCVVLIGYDQESVYIRDPLKDSLDVKVPREKFEQAWVQMGSQAISYVKRSKEGHHHHHH”, the “soluble on expression in E. coli” value is listed as “soluble”.

“MVKLILAEVFNSWQGEGGSVPGSAFGRRQIFVRFAGCDLRCIWCDSSQFIDASKVKKWRIEVEPFSGRFEYRENPASIDEVVDAILKLDTGDLHSISYTGGEPTLQIEGLYILMERMKGLGFDNFLETHGGHPELIKRVSYLTDYASVDIKDESARASRDWRGLVLKEVESIKILKEAGAKVYAKLVVTRETKLENVKWYANLLKGVAPLAIQPKEPMDISMEYLMKLYREAARIMGKKNVGLSFQVHKYLKVL”: the “soluble on expression in E. coli” value is recorded as “soluble”.

In the case of “GPHMTTIEDEDTKVRKQEIIKVTEQLIEAISNGDFESYTKMCDPGMTAFEPEALGNLVEGLDFHRFYFENLWSRNSKPVHTTILNPHIHLMGDESACIAYIRITQYLDAGGIPRTAQSEETRVWHRRDGKWQIVHFHRSGAPSVLPH”, the “soluble on expression in E. coli” value is “soluble”.

Source of the values: the DeepSol protein solubility set.
